Measured values as given in US20260125469A1 (Hoffmann-La Roche, published 2026).
Read-outs that look alike come from different tables or passages of the source. One block for each binder: values may come before it.

Columns and labels:
[1] = molecular target: human CD3 on cells (CD3ε) (human, UniProt P07766 23-207); assay: cell-based or functional assay
[2] = molecular target: T1, Human CD3ε stalk-Fc(knob)-Avi/CD3δ stalk-Fc(hole) (human); assay: SPR, TCB captured by anti-PG antibody, antigen as analyte, 25°C
T1 construct: Heterodimer of CD3 delta and CD3 epsilon ectodomains fused to human Fc with knob-into-hole; also called human CD3ε/δ; CD3 antigen

[3] = molecular target: T2, Cynomolgus CD3ε stalk-Fc(knob)-Avi/CD3δ stalk-Fc(hole) (cynomolgus); assay: as above
T2 construct: also called cynomolgus CD3ε/δ

[4] = molecular target: T1, Human CD3ε stalk-Fc(knob)-Avi/CD3δ …; assay: SPR on immobilized human CD3ε/δ after stress, relative to sample kept at -80°C pH 6
How it was run: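 TCB antibodies (1.0 mg/ml) were stressed 14 days at 37° C pH 7.4 (PBS) or 40° C pH 6 (His/NaCl), referenced to -80° C pH 6 samples. On biotinylated CD3ε/δ at 25° C, 2 μg/ml was injected 30 s; response 5 s post-injection was normalized to anti-huIgG capture.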

[5] = molecular target: T1, Human CD3ε stalk-Fc(knob)-Avi/CD3δ …; assay: SPR, TCB captured by anti-PG antibody, antigen as analyte, 25°C; remark: listed apart in the source
[6] = molecular target: T1, Human CD3ε stalk-Fc(knob)-Avi/CD3δ …; assay: SPR on immobilized human CD3ε/δ after stress, relative to sample kept at -80°C pH 6; remark: listed apart in the source
Protocol: In order to assess the effect of the deamidation site removal and its effect on the stability of the antibodies, the optimized anti-CD3 antibodies (in TCB format) were incubated for 14 days at 37° C., pH 7.4 and at 40° C., pH 6 and further analyzed by SPR for their binding capability to human CD3ε/δ. Samples stored at −80° C. pH 6 were used as reference. The reference samples and the samples stressed at 40° C. were in 20 mM His, 140 mM NaCl, pH 6.0, and the samples stressed at 37° C. in PBS, pH 7.4, all at a concentration of 1.0 mg/ml. After the stress period (14 days) samples in PBS were dialyzed back to 20 mM His, 140 mM NaCl, pH 6.0 for further analysis.
(§1) All SPR experiments were performed on a Biacore T200 instrument (GE Healthcare) at 25° C. with HBS-P+ (10 mM HEPES, 150 mM NaCl pH 7.4, 0.05% Surfactant P20) as running and dilution buffer. Biotinylated human CD3ε/δ (see Example 3, SEQ ID NOs 41 and 42) as well as biotinylated anti-huIgG (Capture Select, Thermo Scientific, #7103262100) were immobilized on a Series S Sensor Chip SA (GE Healthcare, #29104992), resulting in surface densities of at least 1000 resonance units (RU). Anti-CD3 antibodies with a concentration of 2 μg/ml were injected for 30 s at a flow rate of 5 μl/min, and dissociation was monitored for 120 s. The surface was regenerated by injecting 10 mM glycine pH 1.5 for 60 s. Bulk refractive index differences were corrected by subtracting blank injections and by subtracting the response obtained from a blank control flow cell. For evaluation, the binding response 5 seconds after injection end was taken. To normalize the binding signal, the CD3 binding was divided by the anti-huIgG response (the signal (RU) obtained upon capture of the CD3 antibody on the immobilized anti-huIgG antibody). The relative binding activity was calculated by referencing each temperature stressed sample to the corresponding, non-stressed sample.

[7] = molecular target: T1, Human CD3ε stalk-Fc(knob)-Avi/CD3δ …; assay: SPR, TCB captured by anti-PG antibody, antigen as analyte, 25°C; remark: listed apart in the source
Excerpt: (§2) For affinity measurements, TCB molecules were captured on a C1 sensorchip (GE Healthcare) surface with immobilized anti-Fc(P329G) IgG (an antibody that specifically binds human IgG₁ Fc(P329G); “anti-PG antibody”—see WO 2017/072210, incorporated herein by reference). The experimental setup is schematically depicted in FIG. 3. Capture IgG was coupled to the sensorchip surface by direct immobilization of around 400 resonance units (RU) using the standard amine coupling kit (GE Healthcare Life Sciences).
(§3) To analyze the interaction to CD3, TCB molecules were captured for 80 s at 25 nM with a flow rate of 10 μl/min. […] The dissociation was monitored for 800 s.
(§4) Kinetic constants were derived using the Biacore T200 Evaluation Software (GE Healthcare Life Sciences), to fit rate equations for 1:1 Langmuir binding by numerical integration. The half-life (t_{1/2}) of the interaction was calculated using the formula t_{1/2}=ln2/koff.

[8] = molecular target: T2, Cynomolgus CD3ε stalk-Fc(knob)-Avi/CD3δ …; assay: as above; remark: listed apart in the source
Excerpt: as §2, §3, §4

[9] = molecular target: T1, Human CD3ε stalk-Fc(knob)-Avi/CD3δ …; assay: SPR on immobilized human CD3ε/δ after stress, relative to sample kept at -80°C pH 6; remark: listed apart in the source
Protocol: as §1
The experiment was performed as described in Example 4, using the monovalent IgG molecules prepared in Example 19.

[10] = molecular target: T1, Human CD3ε stalk-Fc(knob)-Avi/CD3δ …; assay: SPR, monovalent IgG captured by anti-PG antibody, antigen as analyte, 25°C
Protocol: (§5) SPR experiments were performed as described in Example 3, with the monovalent IgG molecules prepared in Example 19.
(§6) To analyze the interaction to CD3, IgG molecules were captured for 240 s at 50 nM with a flow rate of 5 μl/min. Human and cynomolgus CD3F stalk-Fc(knob)-Avi/CD36-stalk-Fc(hole) were passed at a concentration of 0.061-250 nM with a flow rate of […] through the flow cells for 300 s. The dissociation was monitored for 800 s.

[11] = molecular target: T2, Cynomolgus CD3ε stalk-Fc(knob)-Avi/CD3δ …; assay: as above
Protocol: as §5, §6

[12] = molecular target: T1, Human CD3ε stalk-Fc(knob)-Avi/CD3δ …; assay: as above; remark: listed apart in the source

human CD3 on cells (CD3ε), sequence (P07766 23-207 limits assumed): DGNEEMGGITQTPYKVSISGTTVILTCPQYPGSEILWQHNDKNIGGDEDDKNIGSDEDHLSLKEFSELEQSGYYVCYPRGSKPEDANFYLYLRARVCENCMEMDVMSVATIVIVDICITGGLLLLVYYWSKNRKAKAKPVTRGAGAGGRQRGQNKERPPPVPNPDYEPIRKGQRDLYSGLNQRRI

EC50 24 h (pM), T-cell mediated lysis of CEACAM5-expressing LS180 tumor cells [1]: 58 pM
EC50 48 h (pM), T-cell mediated lysis of CEACAM5-expressing LS180 tumor cells [1]: 36.1 pM
Kd [2]: 0.562 nM
koff [2]: 0.000886 s⁻¹
kon [2]: 1.59e+06 M⁻¹ s⁻¹
t1/2 [2]: 13 min
Kd [3]: 0.324 nM
koff [3]: 0.000675 s⁻¹
kon [3]: 2.08e+06 M⁻¹ s⁻¹
t1/2 [3]: 17.1 min
binding activity [%] after 2 weeks at pH 6.0/40°C [4]: 101%
binding activity [%] after 2 weeks at pH 7.4/37°C [4]: 99%
fold higher binding half-life than CD3orig [5]: > 3 fold
B1: CEACAM5-TCB, CEACAM5 CD3 variant P033.078 (bispecific antibody, human IgG1, kappa, L234A L235A)
heavy 1: not shown
heavy 2: QVQLVQSGAEVKKPGSSVKVSCKASGFNIKDTYMHWVRQAPGQGLEWMGRIDPANGNSKYVPKFQGRVTITADTSTSTAYMELSSLRSEDTAVYYCAPFGYYVSDYAMAYWGQGTLVTVSSASTKGPSVFPLAPSSKSTSGGTAALGCLVEDYFPEPVTVSWNSGALTSGVHTFPAVLQSSGLYSLSSVVTVPSSSLGTQTYICNVNHKPSNTKVDEKVEPKSCDKTHTCPPCPAPEAAGGPSVFLFPPKPKDTLMISRTPEVTCVVVDVSHEDPEVKFNWYVDGVEVHNAKTKPREEQYNSTYRVVSVLTVLHQDWLNGKEYKCKVSNKALGAPIEKTISKAKGQPREPQVCTLPPSRDELTKNQVSLSCAVKGFYPSDIAVEWESNGQPENNYKTTPPVLDSDGSFFLVSKLTVDKSRWQQGNVFSCSVMHEALHNHYTQKSLSLSP
light 1: EIVLTQSPATLSLSPGERATLSCRAGESVDIFGVGFLHWYQQKPGQAPRLLIYRASNRATGIPARFSGSGSGTDFTLTISSLEPEDFAVYYCQQTNEDPYTFGQGTKLEIKRTVAAPSVFIFPPSDRKLKSGTASVVCLLNNFYPREAKVQWKVDNALQSGNSQESVTEQDSKDSTYSLSSTLTLSKADYEKHKVYACEVTHQGLSSPVTKSFNRGEC
light 2: EVQLLESGGGLVQPGGSLRLSCAASGFTFESYAMNWVRQAPGKGLEWVSRIRSKYNEYATYYADSVKGRFTISRDDSKNTLYLQMNSLRAEDTAVYYCVRASNFPSSFVSYFGYWGQGTLVTVSSASVAAPSVFIFPPSDEQLKSGTASVVCLLNNFYPREAKVQWKVDNALQSGNSQESVTEQDSKDSTYSLSSTLTLSKADYEKHKVYACEVTHQGLSSPVTKSFNRGEC
notes: 2+1 IgG CrossFab, inverted; human IgG1 Fc, knob-into-hole, PGLALA; also called P033.078 in CEACAM5-TCB format

binding activity [%] after 2 weeks at pH 6.0/40°C [6]: 99%
binding activity [%] after 2 weeks at pH 7.4/37°C [6]: 99%
Kd [7]: 0.6 nM
koff [7]: 0.000996 s⁻¹
kon [7]: 1.66e+06 M⁻¹ s⁻¹
t1/2 [7]: 11.6 min
Kd [8]: 0.37 nM
koff [8]: 0.000802 s⁻¹
kon [8]: 2.2e+06 M⁻¹ s⁻¹
t1/2 [8]: 14.4 min
fold higher binding half-life than CD3orig [5]: ≤ 6 fold
B2: TYRP1-TCB with anti-CD3 antibody clone P033.078 (bispecific antibody, human IgG1, kappa, L234A L235A)
heavy 1: not shown
heavy 2: QVQLVQSGAEVKKPGASVKVSCKASGFNIKDYFLHWVRQAPGQGLEWMGWINPDNGNTVYAQKFQGRVTMTADTSTSTVYMELSSLRSEDTAVYYCTRRDYTYEKAALDYWGQGTLVTVSSASTKGPSVFPLAPSSKSTSGGTAALGCLVEDYFPEPVTVSWNSGALTSGVHTFPAVLQSSGLYSLSSVVTVPSSSLGTQTYICNVNHKPSNTKVDEKVEPKSCDKTHTCPPCPAPEAAGGPSVFLFPPKPKDTLMISRTPEVTCVVVDVSHEDPEVKFNWYVDGVEVHNAKTKPREEQYNSTYRVVSVLTVLHQDWLNGKEYKCKVSNKALGAPIEKTISKAKGQPREPQVCTLPPSRDELTKNQVSLSCAVKGFYPSDIAVEWESNGQPENNYKTTPPVLDSDGSFFLVSKLTVDKSRWQQGNVFSCSVMHEALHNHYTQKSLSLSP
light 1: DIQMTQSPSSLSASVGDRVTITCRASGNIYNYLAWYQQKPGKVPKLLIYDAKTLADGVPSRFSGSGSGTDFTLTISSLQPEDVATYYCQHFWSLPFTFGQGTKLEIKRTVAAPSVFIFPPSDRKLKSGTASVVCLLNNFYPREAKVQWKVDNALQSGNSQESVTEQDSKDSTYSLSSTLTLSKADYEKHKVYACEVTHQGLSSPVTKSFNRGEC
light 2: B1 light 2
notes: human IgG1 Fc, knob-into-hole, P329G L234A L235A; also called P033.078 in TCB format

binding activity [%] after 2 weeks at pH 6.0/40°C [9]: 98%
binding activity [%] after 2 weeks at pH 7.4/37°C [9]: 95%
Kd [10]: 0.771 nM
koff [10]: 0.00133 s⁻¹
kon [10]: 1.73e+06 M⁻¹ s⁻¹
t1/2 [10]: 8.69 min
Kd [11]: 0.403 nM
koff [11]: 0.00104 s⁻¹
kon [11]: 2.6e+06 M⁻¹ s⁻¹
t1/2 [11]: 11.1 min
fold higher binding half-life than CD3orig [12]: > 2 fold
B3: anti-CD3 antibody clone P033.078 in monovalent IgG format (antibody)
heavy: not shown
chain: DKTHTCPPCPAPEAAGGPSVFLFPPKPKDTLMISRTPEVTCVVVDVSHEDPEVKFNWYVDGVEVHNAKTKPREEQYNSTYRVVSVLTVLHQDWLNGKEYKCKVSNKALGAPIEKTISKAKGQPREPQVCTLPPSRDELTKNQVSLSCAVKGFYPSDIAVEWESNGQPENNYKTTPPVLDSDGSFFLVSKLTVDKSRWQQGNVFSCSVMHEALHNHYTQKSLSLSP
light: B1 light 2
notes: also called monovalent IgG P033.078
